Experimental data: the supplement of paper PMC12042874
± gives the uncertainty stated by the source.

assay: amyloid nucleation score (Sup35N fusion, yeast selection) (log enrichment); library NNK3; higher = more nucleation; inactive = no reads after selection
How it was run: (§1)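 Libraries of peptides of 20 random codons fused to Sup35N were expressed in psi-negative yeast and induced 24 hours with 100 μM copper sulfate. Selection was 7 days at 30°C on medium lacking adenine and uracil, and plasmid inserts were Illumina-sequenced before and after selection. Nucleation score is the DiMSum log enrichment of output over input reads, centred on the mode score of non-aggregating sequences, and sequences with under 100 input reads were left out.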

Substance	amyloid nucleation score
YFGLALKSFGTLM	0.876 ± 0.19
YFISRCIWLVKSYREIELRW	inactive
YFKNGNALCKAFKKRISRKD	inactive
YFLKDKPVNRMIQ	1.75 ± 0.083
YFLNSQVSNLLGS	inactive
YFQTIVFRGTSGYCIVNQQV	1.97 ± 0.1
YFRAFMFETS	inactive
YFRANVRLKLEVMQRKKSPS	2.28 ± 0.075
YFSLWVLSYFLEAPLSLRNN	inactive
YGGNSIY	inactive
YGMGSGTTMVCPKVAWG	inactive
YGRDQSRYYLYSSMGEV	0.148 ± 0.72
YGSDGHHLA	inactive
YGSRW	inactive
YGVSMVVENYL	inactive
YHLDFMMGINSFRRVKAEPG	inactive
YHTARFGIKFLLRM	inactive
YHTAWWAEMCIDIKNGEL	inactive
YHTPCSTSDVARRGRYSRRD	inactive
YIAFCSRDSFRLVMRHNSGI	inactive
YIAVG	-0.483 ± 0.75
YIEYIWWRLSSWLRSMKGLR	inactive
YIFRIHGPLPILHTRYPIRR	inactive
YIIICLGMWCYSNVGSKTGT	inactive
YILRFSWFIYLIRQWSNSGP	inactive

Substance	amyloid nucleation score
YIMDLKITANVLTYVACARR	1.4 ± 0.097
YIQITQMAALARLYIYMRMC	inactive
YIRLGWNVSWMLSSSEYVSH	0.853 ± 0.12
YIRVNTILDLD	inactive
YIRVVNAPVCTGNCLQDAYL	inactive
YISLDVTSIVGFVENIKQCV	1.65 ± 0.068
YISSVQGCPMEGGLPKSSAS	inactive
YIVWCHVVWLADCR	inactive
YIYLTQGTARNIDYT	0.047 ± 0.43
YIYNSLLYI	inactive
YIYTFYSVSY	0.201 ± 0.17
YIYWQRTTSRVLERSVILNV	inactive
YKHFYSFFCISFS	1.88 ± 0.08
YKNIFSWSPNSWTYKCSVNN	inactive
YKNKTSNMLICNAF	inactive
YKNSGFNLFNRVGNWMGVKL	inactive
YKSDSLLRSSLLTELTPIHF	inactive
YKTRTKKVS	inactive
YKYLLFAFLETLGQWYLYVE	inactive
YLDFDRMFVQCEFCLTDLDL	0.59 ± 0.13
YLESGLTS	inactive
YLFSSMLVILTCFRT	inactive
YLGESWTVPALYVRSDMMFV	inactive
YLKGTMSDSKNGPYDRGKLT	inactive
YLMYLGSFSAMLREKWQL	inactive

Substance	amyloid nucleation score
YLNFIGTLEV	inactive
YLNSYQDIYVRCVLELLYSS	inactive
YLNVVWYGALTWSDARFRNL	inactive
YLSIGSVSMSAGASANDAQ	inactive
YLSPEAQKLDQIDSMSADMV	inactive
YLWEYSEMLSTDI	inactive
YLWLWASWSWRGNQNKTSWA	inactive
YLWPLFFSFE	inactive
YLYGGQRVGSF	inactive
YLYSCDSFCFLDPRYMRCPE	inactive
YMCSLLMIAKSMPGRG	1.42 ± 0.14
YMDLSILGAMVSVSFNMG	2.56 ± 0.063
YMGCIYIPYVKFYFKM	1.26 ± 0.081
YMGLTLSVMRPGMTYFPKMF	inactive
YMIATGTVGWNRLTLKCVVV	inactive
YMLQVRCSVDLFVLDTMCFL	inactive
YMSYRSLMNSLTSIL	inactive
YNCRVAVRWYS	inactive
YNGLVGLSNPCTIWESGWVW	inactive
YNLSNTVLAISVGERNT	inactive
YNMTLTYLRLLGAGSIISCL	inactive
YNQCWLTIDINFRYLLA	1.4 ± 0.15
YNSLRGR	inactive
YNVFEALLNRWH	inactive
YPALINSVFITDAIGGPYCL	inactive

Substance	amyloid nucleation score
YPLCEL	0.193 ± 0.19
YPMLLALYTGSVFNFNRCRL	2.07 ± 0.089
YPMTQALVTSWVLHCTAMKM	inactive
YPRDWGYALRLYYVEKKLR	inactive
YPTWKGIFNRWAEYCIRLPV	-0.266 ± 0.36
YQCSASFYRTNVGPSTGHQL	1.13 ± 0.11
YQRLHSL	inactive
YRAIVSHNAMTPV	inactive
YREREAAR	inactive
YRFSRFKMRAVPTMILKLNV	-0.056 ± 0.35
YRGWLNPEYHRLVN	0.008 ± 0.85
YRIGCRF	inactive
YRIVLIFCEISNAMGVVQTS	inactive
YRIYFLRCPDLTRMFNFVEL	inactive
YRMICPAIV	inactive
YRMNDGNDGICMVWLRNSAY	inactive
YRNSC	inactive
YRSTLEKVSVGMMENICVGI	0.028 ± 0.2
YRTRESGLY	-0.425 ± 1.1
YSESMRGNQ	inactive
YSFDASTYIYVSGRLFNKSV	inactive
YSGTKY	inactive
YSINTFLICYYMVRPY	2.36 ± 0.065
YSIVRGWMDARDLHMLHLEI	inactive
YSLAELMCMKEHLPMRNGCF	0.774 ± 0.14

Substance	amyloid nucleation score
YSMIKFSISAD	inactive
YSNVNALISSTSLYLCCCML	0.644 ± 0.23
YSPDMRGMFIGGPDSVPLEG	inactive
YSPSLGSDQACSQLCSLSTF	inactive
YSQFCYIVHLVIGMVDSRRC	inactive
YSQVVW	inactive
YSRDSGCRIKVVPALTVRGR	inactive
YSRGV	inactive
YSTNVSYY	inactive
YSTVDQLARGLQKLMVWLDV	inactive
YSVAVREIVGMNSKLLCDVN	inactive
YSVWVGLCVYSDGYRYNMPE	2.06 ± 0.062
YSYANSMNMGMMFMGRLGW	inactive
YSYAQMSLMEQQMLIRT	inactive
YSYICIILYWWCSRSAILPF	inactive
YSYRVRTSFVENRKCA	inactive
YTRDRQV	inactive
YTRGTWS	inactive
YTVGIVTDWFVTSGNSFYK	inactive
YTVRMWKDDVRARRGSQGVW	inactive
YVFKMWLGPSSLIEFDLKRH	2.88 ± 0.062
YVHFLFQTHIRCMVRFSLCW	inactive
YVIYFSN	-0.389 ± 0.93
YVLRCVFSSDNKDGAWTTWI	inactive
YVNFWKLVIREINFKKNGEP	inactive

Substance	amyloid nucleation score
YVRNQVNFSLAWLLITKLTK	1.94 ± 0.085
YVSIWNHDADRGRC	inactive
YVSLCTTPVGERTSYSCDIH	inactive
YVSPNF	inactive
YVTDMRCGVL	inactive
YWLNK	inactive
YWMLNAHRNW	inactive
YWMMLRT	inactive
YWQHWWL	inactive
YWVGEWLMCPYTR	inactive
YWVWLGPQNI	0.115 ± 0.41
YWYTTCIWRVTSNCWVCISW	inactive
YYCCC	1.63 ± 0.072
YYCDLRSYIRSPG	inactive
YYFHRFL	inactive
YYFTVLRLVVNMAIVSPCPQ	inactive
YYPQRAGYRVPVFLWIGNWR	inactive
YYQLKSHVVRDGHVWTICGS	inactive
YYSGVFPNVVGRS	inactive
YYSLWRSIIVEACRFC	inactive
YYTSYIAGNLAFNTSKFRKM	-0.347 ± 0.7
YYVIDILVW	inactive
YYYLKVHNLVSYVNAFVR	inactive
YYYSMVTTLRGAISILRNPA	inactive

assay: amyloid nucleation score (Sup35N fusion, yeast selection) (log enrichment); library NNK2; higher = more nucleation; inactive = no reads after selection
How it was run: as §1

Substance	amyloid nucleation score
AAFQSMENCCAFCSVRRQES	-0.406 ± 0.38
AAKDSAWFHAIWVKKVRREV	1.01 ± 0.68
AALGTDMSNWVHSRLNQERR	0.433 ± 0.45
AAPGCFNLKFLS	-0.36 ± 0.74
AAQIHYSKYNDDVYFSFEEK	0.283 ± 0.37
ACFHGFPIYGCLLANAMCGR	1.33 ± 0.67
ACLFWIYARRHRLAWVVFIW	-0.487 ± 1.1
ACNWLESFIKCFICVWYRDK	7.73 ± 0.079
ACSDGVAMECKV	-0.429 ± 0.44
ADFTWVKSHVCHMEWSR	0.551 ± 0.42
ADGFVSSIVLT	0.006 ± 0.24
ADRYMHSTHVDNCPYAGFTS	0.444 ± 0.44
